From US5677146, “Human amyloid protein precursor homolog and kunitz-type inhibitor” (Zymogenetics, Inc., dated 1997)

Tests used:
[1] = biological target: recombinant human activated protein C (5 nM), Novo Nordisk A/S (human, UniProt P04070); test: cell-based or functional assay
[2] = biological target: T1, human Factor XIIa (30 nM) (human, UniProt P00748); test: cell-based or functional assay
T1 sequence 1: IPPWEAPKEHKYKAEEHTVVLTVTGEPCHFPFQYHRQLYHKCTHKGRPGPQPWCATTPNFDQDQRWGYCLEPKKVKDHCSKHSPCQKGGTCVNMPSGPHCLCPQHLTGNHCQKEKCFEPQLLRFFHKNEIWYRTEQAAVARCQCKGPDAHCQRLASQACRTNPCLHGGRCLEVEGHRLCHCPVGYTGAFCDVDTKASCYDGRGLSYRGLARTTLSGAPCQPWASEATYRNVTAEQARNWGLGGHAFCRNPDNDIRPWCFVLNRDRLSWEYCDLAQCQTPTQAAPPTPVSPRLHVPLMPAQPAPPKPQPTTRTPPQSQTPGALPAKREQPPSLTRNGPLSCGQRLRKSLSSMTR
T1 sequence 2: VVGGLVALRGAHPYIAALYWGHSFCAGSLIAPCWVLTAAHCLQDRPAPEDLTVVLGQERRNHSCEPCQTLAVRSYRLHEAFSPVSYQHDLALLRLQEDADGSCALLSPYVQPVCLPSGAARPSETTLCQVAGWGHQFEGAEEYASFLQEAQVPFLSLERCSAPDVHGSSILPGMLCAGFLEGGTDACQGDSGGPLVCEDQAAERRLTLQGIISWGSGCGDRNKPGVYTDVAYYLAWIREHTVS

human Factor XIa (1 nM) = human Factor XIa (1 nM) (human, UniProt P03951); test: cell-based or functional assay
human Factor Xa (3 nM) = human Factor Xa (3 nM) (human, UniProt P00742); test: cell-based or functional assay
[3] = biological target: recombinant human Factor VIIa (300 nM), Novo Nordisk A/S (human, UniProt P08709); test: cell-based or functional assay
bovine trypsin = bovine trypsin (bovine, UniProt P00760); test: affinity chromatography of yeast supernatant on bovine trypsin coupled to CNBr-activated Sepharose

B1: Kunitz-type inhibitor domain of the amyloid protein precursor (other)
chain: EVCSEQAETGPCRAMISRWYFDVTEGKCAPFFYGGCGGNRNNFDTEEYCMAVCGSA
% Inhibition [1]: 1% | % Inhibition [2]: 8% | % Inhibition (human Factor XIa (1 nM)): 100% | % Inhibition (human Factor Xa (3 nM)): 29% | % Inhibition [3]: 7% | binding result (bovine trypsin): binds
